# Results published in the nanobody polyreactivity screen of Harvey et al. (2022).
# Test: yeast display, Sf9 membrane polyspecificity reagent, FACS + sequencing; frameworks hold sequencing errors
# In short: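 In a synthetic yeast display library (Saccharomyces cerevisiae BJ5465), nanobody expression was induced with galactose for 36–48 hours. FACS gates were set low and high (top ~1%) using anti-HA fluorescence for expression and streptavidin fluorescence for binding of the Sf9 membrane reagent. Each polyreactivity label is drawn from the gate of origin.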
row,Sequence,polyreactivity (PSR sort gate)
1,QVHLVESGGGLVQAGGSLRLSCAASGIIFAYYAMGWYRQAPGKERELVAAISSTGSTHYADSVKGRFTISRDNAKNTVYLQMNSLKPEDTAVYYCNAYYYYRFKPSHPGLRSYYWGQGTQVTVSS,high polyreactivity
2,QVQLVESGGGLVQAGGSLRLSCAASGRTFSRNAMGWYRQAPGKERELVASISRSGASTYYADSVKGRFTISRDNAKNTVYLQMNSLKPEDTAVYYCNADVYSTYYNYNYWVQGTQVTVSS,high polyreactivity
3,QVQLEESGGGLVQAGGSLRLSCAASGSTIKTYATMGWYRQAHGKERELVAAITSGSSTNYADSVKGRFTISRDTAMNTDYLQMNSLKPEDTAVYYGAADDYYNWYLGEPGDYLGQGTQVTVSS,low polyreactivity
4,QVQLVESGGGLVQAGGSLRLSCAASGIIFVVYDMGWYRQAPGKERELVAAINWSGGSTYYADSVKGRFTISRDNAKNTVYLQMNSLKPEDTAVYYCAAESFSDGSPYNYWGQGTQVTVSS,low polyreactivity
5,QVQLVESGGGLVQAGGSLRLSCAASGRIFYYNAMGWYRQAPGKERELVAAINIGGGTKYADSVKGRFTISRDNAKNTVYLQMNSLKPEDTAVYYCAAGIKRYLSYYTRYGYWGQGTQVTVSS,high polyreactivity
6,QVQLVESGGGLVQAGGSIRLSCAASGRTFPVNAMGWYRQAPGKERELVAAITTNGGRTYYADSVKGRFTISRDNEKNTVYLQMNSLKPEDTAVYYCATGAYTDKRYGYWGQGTQVTVSS,high polyreactivity
7,QVQLVDSGGGLVQAGGSLRLSFAASGITFFYYAMGWYRQAPGKERELVAAISTSGGRTYYADSVKGRFTISRDNAKNTVYLQMNSLKPEDTAVYYSAAQSGWLRYYYWGQGTQVTVSS,high polyreactivity
8,QVQLVESGGGLVQAGGSLRLSCAASGSIFRKNAMGWYRQAPGKERELVAAISSSGGRTYYADSVKGRFTISRDNAKNTVYLQMNSLKPEDTAVYYCAAVYSKGGSSRISPGDDYWGQGTQVTVSS,high polyreactivity
9,QVQLVESGGGLVQAGGSLRLSCAASGFTFWAYAMGWYRHAPGKEMEVVAAISKTGGRTYYADSVKGRFTISRDNAKNNDYLQINSLKPEDTAVYYCAVDITGLYYPVDYWGQGTQVTVSS,high polyreactivity
10,QVQLVESGGGLVQAGGSLRLSFAASGSIFDDNAMGWYRQAPGKERELVAAITSTDSTNYADSVKGRFTISRDNAKNTVYLQMNSLKPEDTAVYYCARDIKHATSYEALYYSDYDYWGQGTQVTVSS,low polyreactivity
11,QVQLVESGGGLVQAGGRLRLSCAASGNTFGINAMGWYRQAPGKEREFVAAITFGGGRTYYADSVKGRFTISRDNAKNTVYFQMNSLKPEDTAVYFCAARAPVVTYTWSSPRWWFDYWGQGTQVTVSS,high polyreactivity
12,QVQRVESGGGLVQAGGSLRLSCAASGRIFGKYAMGWYRQAPGKERELVAAIDGSGSTNYADSVKGRFTISRDNAKNTVYLLMNSLKPEDTAVYYCATDHAQKFRYRSPREYWGQGTQVTVSS,low polyreactivity
13,QFQLVESGGGLVQAGGSLRLSCAASGIIFAGNAMGWYRQAPGKERELVAVITSVGSTYYADSVTGRFTISRDNAKNTVYLQMNSLKPEDTAVYYCNAVSWWRYDYCGQGTQVTVSS,high polyreactivity
14,QVQLVESGGGLVQAGGSLRLSCAASGSIFSGYAMGWYRQAPGKERELVAAITRSGGRTYYADSVKGRFTISRDNAKNTVYLQMNSLKPEDTAVYYCAARGGPGDDYWGQGTQVTVSS,high polyreactivity
15,QVQLVESGGGLVQAGGSLRLSCAASGSIFGYYTMGWYRQAPGKERELVAAITRSGATTFYADSVKGRFTISRDNAKNTVYLQMNSLKPEDTAVYYCAAKARGYTRGYWGQGTQVTVSS,high polyreactivity
16,QVQLVESGGGLVQSGGSLRLSCAASGYTFLEYTMGWYRQAPGKERELVAAITSGGSTKYADSVKGRFTISRDNAKNTVYLQMNSLKPEDTAVYYCNARHYSREFDYWGQGTQVTVSS,low polyreactivity
17,QVKLVESGGGLVQAGGSLRLSCAASGSTFAGTAMGWYRQAPGKEREMVAAISWNTGSTYADSVKGRFTISRDNAKNTVYLQMNSLKPEDTAVYYCAADRSHAYYRKNRVDYWGQGTQVTVSS,low polyreactivity
18,QVQLVESGGGLVQAGGSLRLSCGASGFTFSPYAMGWYRQAPGKERELVAVISGGGSTYYADSVKGRFTISRDNAKNTVYLQMNSLKPEDTAGYYCAKRFYRSYYWGQGTQVTVSS,high polyreactivity
19,QVQLVESGGGLVQAGGSLRLSCAASGRIFGRYAMGWYRQAPGKERELVAVISSGGSTYYADSVKGRFTISRDNAKNTVYLQMNSLKREDTAVYYCAAVNRGGYDYWGQGTQVTVSS,low polyreactivity
20,QVQLVESGGGLVQAGGSLRLSCAASGSIFGRNVMGWYRQAPGKERELVARITRGGSTNYADSVKGRFTISRDNAKNTVYLQMNRLQPEDTAVYYCAAGARQYRGVPDRYGYWGQGTQVTVSS,low polyreactivity
21,QVQLVESGGGLVQAGGSLRLSCAASGGTLFTNAMGWYRQAPGKERELVAAISWRGGRTYYADSVKGRFTISRDNAKNTVYLQMNSLKAEDTAVYYCAAASAAGYDYWGQGTQVTVSS,low polyreactivity
22,QVQLVESGGGLVQAGGSLRLSCAASGFIFWFYAMGWYRQAPGKEREFVATISRGGSKNYADSVKGRFTISRDNAKNTVYFKINSLKAEDTEVYYCAAARSSYWKTIRAFTMDYWGQGTQVTVSS,high polyreactivity

row,Sequence,polyreactivity (PSR sort gate)
1,QVQLVESGGGLVQAGGSLRLSCAASGRIYSNYAIGWYRQAPGKERELVAAITSGGRTNYADSVKGRFTISRDNAKNTVYLQMNSLKRDDTAVYYCDAETTPYQPDGFDEYYYWGQGTQVTVSS,high polyreactivity
2,QVQLVESGGGLVQAGVSLRLSCAASGRTFRGYAMGWYRQAPGKERELVAAISSGGSTYYADSVKWRFTISRDNSKNTVYLQMNSLKPEDTAVYYCARAVGNYRTLEFDYWGQGTHVTVSS,low polyreactivity
3,QVQLVESGGGLVQAGGSLRLSCAASGSIFQFNAMGWYIQAPGKERELVAAISRRTGSTYYADSVKGRFTISRDNAKNTVYLQMNSLKPEDTAVYYCAAKGYGSAPTYRHNYWGQGTQVTISS,high polyreactivity
4,QVQLVESGGGLVQAGGSLRLSCAASGRTFSVYTMGWYRQAPGKERELVASINWSGGRTYYADSVKGRFTISRDNAKNSVYLQMNSLKPEDTAVYYCAATGWRTLYDYWGQGTQVTVSS,high polyreactivity
5,QVQLVESGGGLVQAGGSLRLSCAASGITFFAYAMGWYRQAPGKERELVAAIWRGDNTYYADSVKGRFTISRDNAKNTVYLQMNSLKPEDTAVYYCAARYWSRRIFREGYWGQGTQVTVSS,high polyreactivity
6,QVQLVESGGGLVQAGGSLRLSCAASGRIFAGYGMGWYRQAPGKERELVAAISSGGSTYYADSVKGRFTISRDNAKNTVYLQMNSLKPEDTAVYYCATDGQSVPDDYYQNVDYDYWGQGTQVTVSS,low polyreactivity
7,QVQLVESGGGLVQAGGSLRLSCAASGRTLFHYAMGWYRQAPGKERELVAAIRNSDGSTYYADSVKGRFTISRDNAKNTVYLQMNSLKPEDTAVYYCAAVRRYHSYPDGGYWGQGTQVTVSS,high polyreactivity
8,QVQLVDSGGGLVQAGGSLRLSCAASGFIFFQNAMGWYRQSPGKERELVAAISRRGGSTYYADSVKGRFTISRDNAKNTVYLQRNSLTPDDTAGYYCAARSRCDLASRYTGDYWGQGTQLTVSS,low polyreactivity
9,QVQLVESGGGLVQAGGSLRLSCAASGGIFGYYAMGWYRPAPGKERELVAAINYSGGSTYYADSVKGRFTISRDNAKNTVYLQMNSLKPEDTAVYYCNAVVRDYTFRYYYWGQGTQVTVSS,low polyreactivity
10,QVQLVESGGGLVQAGGSLRLSCAASGIIFGRYAMGWYRQAPGKERELVAAINASGGSTYYADSVKGRFTISRDNAKNTVYLQMNSLKPEDTAVYYCATVHVWGFVYVGSGYWGQGTQVTVSS,high polyreactivity
11,QVQLVESGGGLVQAGGSLRLSCAASGSIIDYYAMGWYRQAPGKERELVAAISSSVGITYYADSVKGRFTISRDNAKNTVYLQMNSLKPEDTAVYYCAADLYGWYFYNQEYDSWGQGTQVTVSS,low polyreactivity
12,QVQLVESGGGLVQAGGSLRLSCAASGSTFAFNAMGWYRHAPGKERELVATISQSGGSTYYADSVKGRFTFSRDNAKNTVYLQKNSLKPEDTSVYYCAKRYWSKWYGRYDYWRQGTQVTVSS,low polyreactivity
13,QVQLVESGGGLVQAGGSLRLSCAASGFTFRRNAMGWYRQAPGKERELVAVITTAGSTNYADSVKGRFTISRDNAKNTVYLQMTSLKPEDTAVYYCATDNGTRKRRYDYWGQGTQVNVSS,low polyreactivity
14,HLQLVESGGGLVQAGGSLRLSCAPSGRILRDYDMGWYRQAPGKERELVAAINWSDGSTYYADSVKGRFTISRDNAKNTVYLQMNSLKPDDTAVFYCAASRWRPLERGTSWLHDYWGQGTQVTVSS,low polyreactivity
15,QVQLVESGGGLVQAGGSLRLSCAASGFTFGSNAMGWYRQAPGKERELVAAISSRGGRTYYADSVKGRFTISRDNAKNTVYLQMNSLKPEDTAVYYCAKYRSYRGPYNYWGQGTQVTVSS,high polyreactivity
16,QVQLVESGGGLVQAGGSLRLSCAASGLTFTTYTMGWYRQAPGKERELVAAISSRGGSTYYADSVKGRFTISRDNAKNTVYLQMNSLKPEDTAVYYFNAPRPHRMDWGQGTQVTVSS,high polyreactivity
17,QVQLVESGGGLDQAGGSLRLSCAASGSTFRYYAMGWYRQAPGKERELVAAINWSGGTTSYADSVKGRFTISRDNAKNTVYLQMNSLKPEDTAVYYCAVPYLYKYSRYDYWGQGTQVTVSS,high polyreactivity
18,QVQLVESGAGLVQAGGSLRLSCAASGFTFPVYAMGWNRQAPGKERELVAAISWSGGGTYYADSVKGRFTISRDIAKNTVYLQMNSLNPEDTAVHYCAARWYYYPLMYDYWGQGTQVTVSS,low polyreactivity
19,QVQLVESGGGLVQAGRSLRLSCAASGTTFVIYDMGWSRQAPGKERDLVAGNSYSGGSTYYADSVKGRFTISRDNAKNTVYLQMNSLKPEDTAVYYCNAGVLVLLYAYLPSDLEYWGQGTQVTVSS,low polyreactivity
20,QVHLVESGGGLVQAGGSLRLSCAASGSTFYRYAMGWYRQAPGKEREFVASISKRGGSTYYADSVKGRFTISRDNAKNTVYLQMISLKPEETAVYYCAADPKFFSGSYLYGYWGQGTQVTVSS,high polyreactivity
21,QVQLVESGGGLVQAGGSLRLSCAASGFIFTPYAMGWYRQAPGKERELVAAIRNTGSTYYADSVKGRFTISRDNAKNTVYLQMNSLKPEDTAVYYCNARRYRWAVVKGGYWGQGTQVTVSS,high polyreactivity
